{
  "source": "patent US20130058911",
  "tested_on": "metmyoglobin",
  "data": [
    {"substance": "recombinant malate dehydrogenase (MDH) of Bacillus natto with C-terminal 6x His-tag", "values": [
      {"measurement": "metmyoglobin reduction activity (change in A406 with NADH)", "result": "the activity of MDH was not found"}
    ]},
    {"substance": "recombinant putative NAD(P)H nitroreductase (yodC) of Bacillus natto with C-terminal 6x His-tag", "values": [
      {"measurement": "metmyoglobin reduction activity (change in A406 with NADH)", "result": "the activity of yodC was confirmed"}
    ]}
  ]
}
